Where no end group is shown, it is not given here.
Target: T1, HLA-DR13 (DRB1*1301) (human)
T1 chain 1: not shown
T1 chain 2: not shown
Assay: competition ELISA, nonbiotinylated reference peptide against its biotinylated tracer

For TERVRLVTRHIYNREE (not fully specified) [B1 21-36 (nonbiotinylated reference peptide)], the IC50 was 39 nM.

Source: patent US20110159022A1, “Immunogenic Peptides Derived from the Midkine Protein, as an Anticancer Vaccine” (priority 2008, published 2011)
